This is an account of results in patent publication CN114317455A.

Test [1] addresses MCR-1蛋白. The test is described as follows: double-antibody sandwich ELISA; 1HD4 coated at 0.2 mg/ml as capture, HRP-labelled 1JA9 as detection, OD450. (In general: ELISA stands for enzyme-linked immunosorbent assay.)
Test [2] addresses MCR-1蛋白. The experiment in a line: indirect ELISA; MCR-1 coated at 0.2 ug/mL; purified antibody (1 mg/ml) diluted two-fold from 1:1000; goat anti-mouse secondary.

B1: 鼠抗MCR-1蛋白单克隆抗体 1JA9 (antibody, V domains shown)
VH: VKLQESGPELVKPGASVKMSCRTSGYTFTSYIMHWVKQKPGQGLEWIGYFNPYTDGSKYNEMFNGKATLSSDKSSGTAYMEFSSLTSEDSAVYYCARGPYGNYAMDYWGQGTSVTVSA
VL: EILLTQTPLSLPVSLGDQASISCRSSQNIVHSYGNPSLEWYLQKPGQSPKLLIYKVSNRFSGVPDRFSGSGSGTDFTLKISRVEAEDLGVYYCFQASHVPWTFGGGTKLEIKR
The molecule B1 displayed a 检测抗原灵敏度 (dilution factor) (dilution factor (1:x)) in test [1] of 5.12e+06. The 效价 (ELISA titer, dilution of 1 mg/ml antibody) (dilution factor (1:x)) in test [2] was greater than 1.28e+06.

B2: 鼠抗MCR-1蛋白单克隆抗体 1HD4 (antibody, V domains shown)
VH: VKLQESGPELVKPGASVKVSCKASGYIFTCCKMYWVKQSHGKSLEWIGYFDPYNGDTSSNQKFKGKVTLTVDKSSSTAYMFLNSLTSEDSAVYYCASWLQNYYAMDYWGQGTSVTVSS
VL: DVQMTQTTSSLSASLGDRVTISCRASQDISNYLNWYQQKPDGTVKLLIYYTSRLHSGVPSRFSGSGSGADYSLTISNLEEEDIATYFCQQGNTFPYTFGGGTKLEIK
For the molecule B2, in test [2], the 效价 (ELISA titer, dilution of 1 mg/ml antibody) (dilution factor (1:x)) is greater than 1.28e+06.
